Measurements: the nanobody polyreactivity screen of Harvey et al. (2022)

Assay: yeast display, Sf9 membrane polyspecificity reagent, FACS + sequencing; frameworks hold sequencing errors
Outline: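 Nanobodies came from a synthetic yeast display library in Saccharomyces cerevisiae BJ5465, induced with galactose for 36–48 hours and stained for 1 hour at 4 °C with 10% biotinylated, detergent-solubilized Sf9 membrane reagent. Cells were enriched on streptavidin microbeads and then FACS-sorted, with low and high (top ~1%) gates set on anti-HA fluorescence for expression and streptavidin fluorescence for reagent binding. Each polyreactivity label reflects the gate a clone came from. Genes were amplified by colony PCR, sequenced by MiSeq 2 × 250 and filtered by CDR length.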

| Sequence | polyreactivity (PSR sort gate) |
| --- | --- |
| QVQLVESGGGLVQAGCSLRLSCAASGNTFGYYAMGWYRQAPGKERELVAAITSSGGRTYYADSVKGRFTISRDNAKNTVYLQMNSLKPEDTAVYYCAAGRVGARYPTYRFYYWGQGTLVTVSS | high polyreactivity |
| QVQLVESGGGLVQAGGSLRLSCAASGRTFRKYAMGWYRQAPGKERELVAAISWSGGSTYYANSVKGRFTISRDNAKNTVYLPMNSLKPVDTAVYYCAAVPVHTGSLYWGFTTGYDYWGQGTQVTVSS | low polyreactivity |
| QVQLLESGGAIVQAGGSHRLSCAASGSIFTHYAMGWYRQATGKERELVAGITSSGGSTYADSVKGRFTISRDNAKNSVYLQMISLKPEDTAVYYCAAEQLRSRLIEYDYWGQGTQVTVSS | low polyreactivity |
| QVQLVESGGGLVQAGGSLRLSCAASGLTFYYYAMGWYRQAPGKERELVAAISIGGSTDYADSVKGRFTISRDNAKNTVYLQMNSLKPEDTAVYYCNVDDNSEYDYWGQVTQVTVSS | low polyreactivity |
| QVQLVESGGGLVQAGGSLRLSCAASGRTFWKYVMGWYRQAPGKEREVVAVISRPAGSTYYADSVKGRFTISRDNAKNTVYLQMNSLKPEETAVYYCNKPGGQSLGGYNYWVQGTQVTVSS | low polyreactivity |
| QVQLVESGGGLVQAGGSLRLSCAASGSTFDYYAMGWYRQAPGKERELVAAISRSGGRTYYADSVKGRFTISRDNAKNTVYLQMNSLKPEDTAVYYCAADKPVIGTYSRYDYWGQGTQVTVSS | high polyreactivity |
| QVQLVESGGGVVQAGGSLRLSCAASGSTFFYYAMGWYRQAPGKERELVATIRGSAGRTYYADSVKGRFTISRDHAKYTVYLQMNCLKPEDTAVYYCARRYWPGSAYWIYDYWGQGTQVTVSS | high polyreactivity |
| QVQLVESGGGLVQAGGSLRLSCAASGSIFGYYAMGWYRQAPGKERELVAVITRDASTYYADSVKGRFTISRDNAKNTVDLQMNSLKPEDTAVYYCAADRWWRRSWVKLDYWGHGTQVTVSS | low polyreactivity |
| QVQLVESGGGLVQAGGSLRLSCAASGSTLVPNAMGWYRQAPGKERELVATISFSSGRTYYADSVKGRFTISRDNAKNTVYLQMNSLKPEDTAVYYCNARSFGPTESRYDYWGQGTQVTVSS | high polyreactivity |
| HVQLVESGGGLVQAGGSLRLSCAASGSIFVVYAMGWYRQAPGKERELVASIRTGGSTNYADSVKGRYTISRDNAKNTVYLQMNSLKPEDTAVYYCAAASWNSNRHYYVARYYYWGQGTQVTVSS | high polyreactivity |
| QVQLVESGGGLLQAGGSLRLSCAASGITFLGYAMGWYRQATWKERELVAAISISGDTYYADSEKGRFTISRDNAKNTVYLQMNSLKPEDTAVYYCAAVQSYAGFEYGYWGQGTQVTVSS | high polyreactivity |
| QVQLLESGGGLVQAGGSLRLSCAASGRTFTSNVMGWYRQAPGKERELVAAISSSGGRTYYADSVKGRFTISRDNAKNTVYLLMNSLKPEDTAVYSCAADGYPEYPRYGYWGQGTQVTVSS | high polyreactivity |
| QVQLEESGGGLVQAGGSLRLSCAASGRTFYGKAMGWYRNAPGKEWEFVASISYSGTTTYYADSVKGRFTISRDNAKNTVYLKMNSLKPEDTAVYYCAVESYPTDYGPRFGSWGQGTQVTVSS | low polyreactivity |
| QVQLVESGGGLVQAGGSLRLSCAASGSTFGEYAMGWYRQAPGKERELVASITFSAGSTDYADSVKGRFTISRDNAKNTVFLQMNSLKPEDTSVYYCAADGWWPWEYEYWGQGTQVTVSS | low polyreactivity |
| QVQLVESGGGLDQAGGSLRLSCAASGITFPYYAMGRYIQAPGKERELVADITSGGSTNYADSVKGRFTISRDNAKNTGYLQMNRLKPEDTAVYYCAADWYVIYDYWGQGTQVSVSS | low polyreactivity |
| QVQLVESGGGLVQAGGSLRLSCAASGRTFYSNAMGWYRQAPGKERELVAAISYRGGRTYYADSVKGRFTISRDNAKNTVYLQMNSLKPEDTAVYYSAADAYVLFYGDWYECDYWGQGTQVTVSS | high polyreactivity |
| QVQLVESGGGLVQAGGSLRLSCAASGSNFGDNPMGWYRQAPGKERELVAAISSSGDSTYYADSVKGRFTISRDNAKNTVYLQMNSLKPEDTAVYYCADDRGSTAGSVTYTPGNYWGQGTQVTVSS | low polyreactivity |
| QVQLVESVGGLVQAGGSLRLSGAASGRTFSSYALGWYRQAPGKVRELVAGIRLSTGSTYYADSVKGRFTISRDNAKNTVYLQMNSLQPEDTAVYYCNARGWAYSGAKSYYWGQGTQVTLSS | high polyreactivity |
| QVQLVESGGGLVQAGGSLRLTCAASASIFGSAMGWSRQAPGNEMELVASTTDADSVKGRFTISRDNAKNTVYLQMNSLKPEDTSVYYCAADDWDTVEMEYWGQVTQVTVSS | low polyreactivity |
| QVQREESGGGLVQAGGSLRLSCAASGRTFRYYAMGWSRQAPGKERELVAAITSGGGTNYADSVKGRFTISRDNAKNTVYLQMNSLKPEDTAVYYCAADHVYYDYDYWGQGTQVNVSS | low polyreactivity |
| QVQLVESGGGLVQAGGSLRLSCAASGSTFPTKAMGWYRQAPGKERELVATITTRRSTYYADSVKGRFTISRDNAKNTVYLQMNSLKPEDTAVYYCNAEYVYLIFSVYLYDYDYWGQGTQVTVSS | low polyreactivity |
| QVQLQESGGVQAGGSLRQSCAASGYISRSDVMGWYRQAPGKERELVATINNATITYYADSVKGRFTISRDNAKNTVYLQMNSLKPEDTAVHYFAVVQSDTDSLYYWGQGTQVTVSS | low polyreactivity |

| Sequence | polyreactivity (PSR sort gate) |
| --- | --- |
| QVQLVESGGGLVQAGGSLRLSCAASGSIFGSYVMVWYRQAPGKERELVAAISKSGGRTYYADSVKGRFTISRDNAKNTVYLQMKSLKPEDTAVYYCAVLPRVKDGTGGDYWGQGTQVTVSS | high polyreactivity |
| QVQLVESGGGLVQAGGSLRLSCAASGRTFYYYYTMGWYRQAPGKERELVAAISRSGSTNYADSVKGRFTISRDNAKNTVYLQMNSLKPEDTAVYYCARSYRSDGSRFGYWGQGTQVTVSS | low polyreactivity |
| QVQLVESGGGLVQAGGSLRLSCAASGSTFYLYAMGWYRQAPGKERELVAAISWTGGSTTYADSVKGRFTISRDNAKNTVYLQMNSLKPEDTAVYYCAADEGLIDGRAWYGYWGQGTQVTVSS | low polyreactivity |
| QVQLVESGGGLVQAGGSLRLSCAASGSIFYFYDMGWYRQAPGKERELVAAISLDDGGTYYADSVKGRFTISRDNAKNTVYLQMNSLKPEDTAVYYCAADYYYWYQIYDYWGQGTQVTVSS | high polyreactivity |
| QVQLVESGGGIVQAGGSLRLSCAASGIIFSANAMGWYRQAPGKERELVAAISRAGSTNYADYVKGRFTISRDNAKNTVYLQMNSLKPEDTAVYYCAAGGGFYFIWTMDYWGQGTQVTVSS | low polyreactivity |
| QVQLVESGGGLVQAGGSLRLSCAASGRTCKPYAMGWYRQAPGKEREVVAVITSNGSSTYYADSVKGRFTISRDNAKNTVYLQMNSLKPEDTAVYYCATKLTYTLTSGAYAYDYWGQGTQVTVSS | low polyreactivity |
| QVQLVESGGGLVQAGGSLRLSCAASGRTFSYYTMVWYRQAPGKERELVARISNRGTNTYYADSVKGRFTISRDNAKNTVYLQMNSLKPEDTAVYYCAKYYYTSIVGYDSWGQGSQVTVSS | low polyreactivity |
| QVQLVESGGGLVQAGASLRLSCPPSGFIFSLYAMGWYSQAPGKERELVADISWGDGTTYYADSVKGRFTISRDNAKNTVYLQMNSLKPEDTAVYYCAADSVSNWYWFNYWGQGTQVTVSS | high polyreactivity |
| QVQLVESGGGLVQAGGSLRLSCDASGRIFYNYAMGWYRQAPGTERELVAAISGSGGSTYYADSVKGRFTISRDNAKNTVYLQMNSLKPEDTAVYDCSTFGPQYYSRNFDYWGQGTLVTVSS | low polyreactivity |
| QVQIVESGGGLVQAGGSHRLSCAASGSTFDAYAMGWYRQEPGKEREMVAAISTRGGRTYYADSVKGRFTISRDNAKNTVYLQMNSLKPEDTAVYYCNAVVARVNVRGTPAFDYWGQGTQVTVSS | high polyreactivity |
| QVKLVESVGGLVQAGGSLRFSCAASANTFYYYAMGWYREAPGNDMELVASITWRVGDTYYADSVKGRFTIARDNAKNTVYLQMNSLKPEDTAVYYCAKPRLGRYDSLSYLGDYPGYDYWGQGTQVTVSS | low polyreactivity |
| QVQLVESGGGLVQAGGSLRLSCAASGRTFRANTMGWYRQAPGKERELVAAISDRGGSTYYADSVKGRFTISRDNAKNTVYLQMNSLKPEDTAVYYCAARNTPAQLDYWGQGTQVTVSS | low polyreactivity |
| QVQLVESGGGLVQAGGSLRLSCAASGRIFKPNAMGWYRQAPGKERELVASITSRGTSTYYADSVKGRFTISRDNAKNTVYLQMNSLKPEDTAVYYCAARPIHYPPYYYWGQGTQVTVSS | high polyreactivity |
| QVQLVESGGGLVQAGGSLRLSCAASGSTFGPYAMGWYRQAPGKERELVAAITWNGGSTYYADSVKGRFTISRDNAKNSVYLQMNSLKPEDTAVSFCNAVGSYGDFGYWGQGTQVTVSS | high polyreactivity |
| QVQLVESGGGLVQEGGSLRLICAASGLIFRTYTMGWYRQAPGKERELVATITRRGGTTYYADSVKGRFTISRDNAKNTVYLQMNSLKPEDTAVYYCAKSPYYTWKYDYWGQGTQVTVSS | high polyreactivity |
| QVQLVESGGGLVQAGGSLRLSCAASGSTLRPYAMGWYRQAPGKERELVAAISKSGASTYYADSVKGRVTISRDNANNTVYFQMNSLKPEDTAVNYCNAGRGTWETLYGYDYWGQGTQVTVSS | high polyreactivity |
| QVQLVESGGGLVQAGGSLRLSCAASGSTFSRYAMGWYRQAPGKERELVAAISSRGGSTYYADSVKGRFTISRDNAKNTVYLQMNSLKPEDTAVYYCAARPYYYIVRGTEYDYWGQGTQVTVSS | high polyreactivity |
| QVQLVESGGGLVQAGGSLRLSCAASGRIFPPYAMGWYRQAPGKERELVAAISSSTTSTYYADSVKGRFTISRDNAKNTVYLQMNSLKPEDTADYYCAATGKGSYGYWGQGTQVTVSS | low polyreactivity |
| QVQLVESGGGLVQAGRSLRLSCAASGRTFGGNAMGWYRQAPGKERELVAAIDQSGGSTYYADSVKGRFTISRDNAKNTVYLQMNSLKPEDTAVYYCATHDGGTYYVREPNVKYDYWGQVTQVTVSS | low polyreactivity |
| QVQLVESGGGLVQAGGSLRLSCAASGSIFSPYAMGWYRQAPGKERELVAAITDSGGSTYYADSVKGRFTISRDNAKYTVYLQMNSLKPEDTAVYYCAADLRYWSWAFDYWGQGTQVTVSS | low polyreactivity |
| QVQLVESGGGLVQAGGSLRLSCSAYGSILWYNAMGWYRQAPGKERELVAAINRGGSTNYADSVKGRFTISRDNAKNTVYLQMNSLKPEDTAVYYCAADRLLVSAGGVQFDYWGQGTQVTVSS | low polyreactivity |
